Source: patent US20100168031

T1: L(+)-biotinyl-aminohexanoyl-Glu-Ser-Ile-Asp-Asp-Tyr-Val-Asn-Val-Pro-Glu-Gly-OH (SEQ ID NO:13) (not fully specified)
T1 chain: ESIDDYVNVPEG

T2: L(+)-biotinyl-aminohexanoyl-Glu-Glu-Gly-Ala-Pro-Asp-Tyr-Glu-Asn-Leu-Gln-Glu-Leu-Asn (SEQ ID NO:12)
T2 chain: EEGAPDYENLQELN

T3: L(+)-biotinyl-aminohexanoyl-Cys(H)-Asp-Asp-Tyr-Glu-Phe-Leu-NH2 (SEQ ID NO:25)
T3 chain: CDDYEFL

T4: L(+)-biotinyl-aminohexanoyl-Glu-Asp-Glu-Asp-Asp-Tyr-His-Asn-Pro-Gly-Gly-OH (SEQ ID NO:14) (not fully specified)
T4 chain: EDEDDYHNPGG

B1: recombinant full-length human ZAP-70 (Zeta chain-associated protein of 70 kD) with N-terminal hexa-histidine tag (protein)
chain: MPDPAAHLPFFYGSISRAEAEEHLKLAGMADGLFLLRQCLRSLGGYVLSLVHDVRFHHFPIERQLNGTYAIAGGKAHCGPAELCEFYSRDPDGLPCNLRKPCNRPSGLEPQPGVFDCLRDAMVRDYVRQTWKLEGEALEQAIISQAPQVEKLIATTAHERMPWYHSSLTREEAERKLYSGAQTDGKFLLRPRKEQGTYALSLIYGKTVYHYLISQDKAGKYCIPEGTKFDTLWQLVEYLKLKADGLIYCLKEACPNSSASNASGAAAPTLPAHPSTLTHPQRRIDTLNSDGYTPEPARITSPDKPRPMPMDTSVYESPYSDPEELKDKKLFLKRDNLLIADIELGCGNFGSVRQGVYRMRKKQIDVAIKVLKQGTEKADTEEMMREAQIMHQLDNPYIVRLIGVCQAEALMLVMEMAGGGPLHKFLVGKREEIPVSNVAELLHQVSMGMKYLEEKNFVHRDLAARNVLLVNRHYAKISDFGLSKALGADDSYYTARSAGKWPLKWYAPECINFRKFSSRSDVWSYGVTMWEALSYGQKPYKKMKGPEVMAFIEQGKRMECPPECPPELYALMSDCWIYKWEDRPDFLTVEQRMRACYYSLASKVEGPPGSTQKAEAACA
B2: ZAP-70 activated by Lck (protein)
chain: B1 chain
B3: recombinant full-length human Bruton's tyrosine kinase (Btk) (protein)
chain: MAAVILESIFLKRSQQKKKTSPLNFKKRLFLLTVHKLSYYEYDFERGRRGSKKGSIDVEKITCVETVVPEKNPPPERQIPRRGEESSEMEQISIIERFPYPFQVVYDEGPLYVFSPTEELRKRWIHQLKNVIRYNSDLVQKYHPCFWIDGQYLCCSQTAKNAMGCQILENRNGSLKPGSSHRKTKKPLPPTPEEDQILKKPLPPEPAAAPVSTSELKKVVALYDYMPMNANDLQLRKGDEYFILEESNLPWWRARDKNGQEGYIPSNYVTEAEDSIEMYEWYSKHMTRSQAEQLLKQEGKEGGFIVRDSSKAGKYTVSVFAKSTGDPQGVIRHYVVCSTPQSQYYLAEKHLFSTIPELINYHQHNSAGLISRLKYPVSQQNKNAPSTAGLGYGSWEIDPKDLTFLKELGTGQFGVVKYGKWRGQYDVAIKMIKEGSMSEDEFIEEAKVMMNLSHEKLVQLYGVCTKQRPIFIITEYMANGCLLNYLREMRHRFQTQQLLEMCKDVCEAMEYLESKQFLHRDLAARNCLVNDQGVVKVSDFGLSRYVLDDEYTSSVGSKFPVRWSPPEVLMYSKFSSKSDIWAFGVLMWEIYSLGKMPYERFTNSETAEHIAQGLRLYRPHLASEKVYTIMYSCWHEKADERPTFKILLSNILDVMDEES

Assays:
[1] = biological target: T1, L(+)-biotinyl-aminohexanoyl-Glu-Ser-Ile- …
[2] = biological target: compounds represented by SEQ ID NO:12, SEQ ID NO:13, SEQ ID NO:14 or SEQ ID NO:25
[3] = biological target: T2, L(+)-biotinyl-aminohexanoyl-Glu-Glu-Gly- …
[4] = biological target: T3, L(+)-biotinyl-aminohexanoyl-Cys(H)-Asp-A …
[5] = biological target: T4, L(+)-biotinyl-aminohexanoyl-Glu-Asp-Glu- …
[6] = biological target: compounds of SEQ ID NO:12; SEQ ID NO: 13; or SEQ ID NO: 14

Protein	phosphorylation of the peptide by the kinase, time resolved fluorescence resonance energy transfer (Eu-anti-phosphotyrosine / SA-APC, 665 nm) [1]	fluorescence units (TR-FRET phosphorylation assay, 250 nM peptide, 10 nM ZAP-70, 1 µM ATP) [2]	phosphorylation of the peptide by the kinase, time resolved fluorescence resonance energy transfer (Eu-anti-phosphotyrosine / SA-APC, 665 nm) [3]	phosphorylation of the peptide by the kinase, time resolved fluorescence resonance energy transfer (Eu-anti-phosphotyrosine / SA-APC, 665 nm) [4]	phosphorylation of the peptide by the kinase, time resolved fluorescence resonance energy transfer (Eu-anti-phosphotyrosine / SA-APC, 665 nm) [5]	Km (33P-ATP phosphorylation assay, peptide 0.08-20 µM) [6]	Maximal cpm (33P-ATP phosphorylation assay) [6]	phosphorylation of the peptide with 33P-ATP, biotin capture plate, scintillation counting [1]	fluorescence units (TR-FRET phosphorylation assay, 250 nM peptide, 10 nM ZAP-70 plus 42 nM Lck, 1 µM ATP) [2]	phosphorylation of the peptide with 33P-ATP, biotin capture plate, scintillation counting [3]	phosphorylation of the peptide with 33P-ATP, biotin capture plate, scintillation counting [5]	phosphorylation of the peptide by the kinase, time resolved fluorescence resonance energy transfer [1]	phosphorylation of the peptide by the kinase, time resolved fluorescence resonance energy transfer [3]	phosphorylation of the peptide by the kinase, time resolved fluorescence resonance energy transfer [5]
B1	are phosphorylated by ZAP-70 and by ZAP-70 activated by Lck	20,000 to 46,000 fluorescence units	are phosphorylated by ZAP-70 and by ZAP-70 activated by Lck	are phosphorylated by ZAP-70 and by ZAP-70 activated by Lck	are phosphorylated by ZAP-70 and by ZAP-70 activated by Lck	–	–	–	–	–	–	–	–	–
B2	are phosphorylated by ZAP-70 and by ZAP-70 activated by Lck	–	are phosphorylated by ZAP-70 and by ZAP-70 activated by Lck	are phosphorylated by ZAP-70 and by ZAP-70 activated by Lck	are phosphorylated by ZAP-70 and by ZAP-70 activated by Lck	Km values are in the range of from 0.4 to 2.0 µM	Maximal cpm range from 12,000 to 16,000	are phosphorylated by ZAP-70	20,000 to 46,000 fluorescence units	are phosphorylated by ZAP-70	are phosphorylated by ZAP-70	–	–	–
B3	–	–	–	–	–	–	–	–	–	–	–	are hardly phosphorylated by Lck, Btk or IRK	are hardly phosphorylated by Lck, Btk or IRK	are hardly phosphorylated by Lck, Btk or IRK
